Test [1] deals with Y50A. Put plainly: alanine-scanning library in HEK-293T cells, immunofluorescence by flow cytometry; mean of duplicates, mock-subtracted, normalised to wild-type CD33; range in parentheses.
The target in test [2] is P19A. The test is described as above.
For test [3], the target named is N53A. Described as above.
Test [4] concerns the target K52A. Described as above.
The target in test [5] is F21A. The test is described as above.
In test [6] the target is Y49A. Described as above.
Sequence of Y49A (receptor chain, as listed by the source Y49A Y49A limits assumed): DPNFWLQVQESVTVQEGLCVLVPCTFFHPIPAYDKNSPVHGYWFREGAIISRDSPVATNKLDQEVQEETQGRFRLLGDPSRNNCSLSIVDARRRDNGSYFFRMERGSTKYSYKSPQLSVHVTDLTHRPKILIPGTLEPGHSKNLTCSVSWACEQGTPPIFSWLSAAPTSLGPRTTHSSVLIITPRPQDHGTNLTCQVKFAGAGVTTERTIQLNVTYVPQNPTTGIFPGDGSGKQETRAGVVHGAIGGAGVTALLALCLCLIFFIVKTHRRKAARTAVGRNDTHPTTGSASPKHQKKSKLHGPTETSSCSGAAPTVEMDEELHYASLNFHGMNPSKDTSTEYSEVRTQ
Test [7] has as its target P46A. The test is described as above.
Test [8] has as its target N20A. Described as above.
In test [9] the target is F44A. The test is described as above.
Sequence of F44A (receptor chain, as listed by the source F44A F44A limits assumed): as the sequence (receptor chain, as listed by the source Y49A Y49A limits assumed) above, with F27A, A32Y counted along it
Test [10] concerns the target D18A. The test is described as above.
Test [11] addresses T1, human CD33 (human, UniProt P20138 18-364). Put plainly: flow cytometry, human primary dendritic cells, 10 ug/ml antibody. A general note: Flow cytometry measures light scatter and fluorescence of single cells or particles in a stream.
Test [12] has as its target CD33-Fc (human) (UniProt P20138). The test is described as follows: red blood cell solid adhesion assay, plate-bound CD33-Fc, antibody at 1.0 ug/ml; competitor: ligands on red blood cells; % of RBC binding without antibody.
For test [13], the target named is T1, human CD33. Put plainly: flow cytometry, human primary monocytes, 10 ug/ml antibody.
Test [14] deals with T1, human CD33. Put plainly: flow cytometry, human primary macrophages, 10 ug/ml antibody.
In test [15] the target is T1, human CD33. The test is described as follows: flow cytometry, CHO cells expressing recombinant human CD33, 10 ug/ml antibody, PE secondary.
For test [16], the target named is T1, human CD33. Put plainly: cell-based or functional assay.
For test [17], the target named is T1, human CD33. The test is described as follows: flow cytometry binding curve on human primary dendritic cells, about 0.003-3 nM antibody.
The target in test [18] is histidine-tagged human CD33 (Sino Biological) (human, UniProt P20138 18-364). Put plainly: SPR (BiaCore T200, 25 C), antibody captured on anti-mouse IgG chip, 20 nM His-tagged CD33 in solution, single-concentration 1:1 fit; apparent KD. On the technique in general: Surface plasmon resonance follows binding to a sensor surface in real time, without labels.
Sequence of histidine-tagged human CD33 (Sino Biological) (P20138 18-364): as the sequence (receptor chain, as listed by the source Y49A Y49A limits assumed) above, with A32Y counted along it
In test [19] the target is T1, human CD33. Put plainly: flow cytometry binding curve on human primary dendritic cells, about 0.003-3 nM antibody (FIG. 5H).

From US20190002560A1 (Alector, published 2019) come the findings set out here.

Several values for one entry are separate records, joined by “and”; a condition that tells them apart may be missing. Equal entries are not always repeated.

T1 sequence (P20138 18-364 limits assumed): as the sequence (receptor chain, as listed by the source Y49A Y49A limits assumed) above, with A32Y counted along it
Sequence of D18A (receptor chain, as listed by the source D18A D18A limits assumed): as the sequence (receptor chain, as listed by the source Y49A Y49A limits assumed) above, with D1A, A32Y counted along it
Sequence of F21A (receptor chain, as listed by the source F21A F21A limits assumed): as the sequence (receptor chain, as listed by the source Y49A Y49A limits assumed) above, with F4A, A32Y counted along it
Sequence of Y50A (receptor chain, as listed by the source Y50A Y50A limits assumed): as the sequence (receptor chain, as listed by the source Y49A Y49A limits assumed) above, with A32Y, Y33A counted along it
Sequence of N20A (receptor chain, as listed by the source N20A N20A limits assumed): as the sequence (receptor chain, as listed by the source Y49A Y49A limits assumed) above, with N3A, A32Y counted along it
Sequence of P46A (receptor chain, as listed by the source P46A P46A limits assumed): as the sequence (receptor chain, as listed by the source Y49A Y49A limits assumed) above, with P29A, A32Y counted along it
Sequence of P19A (receptor chain, as listed by the source P19A P19A limits assumed): as the sequence (receptor chain, as listed by the source Y49A Y49A limits assumed) above, with P2A, A32Y counted along it
Sequence of N53A (receptor chain, as listed by the source N53A N53A limits assumed): as the sequence (receptor chain, as listed by the source Y49A Y49A limits assumed) above, with A32Y, N36A counted along it
Sequence of K52A (receptor chain, as listed by the source K52A K52A limits assumed): as the sequence (receptor chain, as listed by the source Y49A Y49A limits assumed) above, with A32Y, K35A counted along it

Consider WM53 MAb (antibody), for which the Binding Reactivity (% WT) in [1] amounted to 75.1 % WT; in [2] it was 116 % WT; in [3] it was 164 % WT; in [4], 12.4 % WT; in [5], 137 % WT; in test [6], 1.7 % WT. The Binding Reactivity (% WT) in test [7] was found to be 152 % WT; in test [8] it was 166 % WT; in test [9], 76.5 % WT; in test [10] it was 98 % WT.

isotype mIgG1 control antibody: in test [11], the % Positive was found to be 1.97% and the MFI was found to be 861. In test [12], the Percent RBC Binding to CD33 was found to be 83.8%. Further, in [13], the % Positive was 2.38% and the MFI amounted to 109. In addition, in [14], the % Positive worked out at 4.16% and the MFI amounted to 1220. Also, in test [15], the % Positive was found to be 0.47% and the MFI came out at 227. In [16], this molecule showed a % CD33 surface expression, U937 cells (FACS, 1.0 ug/ml antibody, 24 h, % of no antibody) of 95.7%; a % CD33 surface expression, human microglial cells (FACS, % of no antibody) of 92.1%; a % CD33 surface expression, human primary dendritic cells (FACS, 1.0 ug/ml antibody, 24 h, % of no antibody) of 70.5%; a % CD33 surface expression, human primary macrophages (FACS, 1.0 ug/ml antibody, 24 h, % of no antibody) of 95.4%. Further, the % CD33 surface expression, human primary monocytes (FACS, 1.0 ug/ml antibody, 24 h, % of no antibody) in test [16] turned out to be 104%.

B1: anti-CD33 antibody gemtuzumab (antibody, V domains shown)
VH: EVQLVQSGAEVKKPGSSVKVSCKASGYTITDSNIHWVRQAPGQSLEWIGYIYPYNGGTDYNQKFKNRATLTVDNPTNTAYMELSSLRSEDTAFYYCVNGNPWLAYWGQGTLVTVSS
VL: DIQLTQSPSTLSASVGDRVTITCRASESLDNYGIRFLTWFQQKPGKAPKLLMYAASNQGSGVPSRFSGSGSGTEFTLTISSLQPDDFATYYCQQTKEVPWSFGQGTKVEVKR
notes: Commercially available antibody
Broadly, the EC50 is the concentration needed to bring the measured effect to its halfway point. A low value points to greater potency. B1: the EC50 in [17] worked out at 0.613 nM. For the same molecule, the Kd in test [18] was found to be 1.1 nM. In addition, the “EC50 for reducing cell surface expression of CD33 (12-point 2-fold titration, FACS)” value in [16] was determined as 0.107 nM.

B2: anti-CD33 antibody 1A8 (antibody, V domains shown)
VH: QVQLQQSGAELVKPGASVKLSCKASGYTFTSYDINWVRQRPEQGLEWIGWIFPGDGSTKYNEKFKGKATLTTDKSSNTTYMQLSRLTSEDSAVYFCARGYHYAMDSWGQGTSVTVSS
VL: DIKMTQSPSSMYESLGERVTITCKASQDINKYLSWLQQKPGKSPKTLIYRANRLVDGVPSRFSGSGSGQDYSLTISSLEYEDMGIYHCLQYDEFPLTFGAGTKLELK
notes: Mouse hybridoma antibody; mIgG1 served as isotype control; also called 1A8.2
The molecule B2 had a Percent RBC Binding to CD33 in test [12] of 10%. Also, in [18], the Kd is 6 nM.

B3: anti-CD33 antibody 2F5 (antibody, V domains shown)
VH: EVQLQQSGPELVKPGASVKISCKASGYTFTDYNLHWVKLSHGKSLEWIGFIYPSNGITGYNQKFKNKATLTVDNSSSTAYMELRSLTSEDSAVYYCARSTVDYFDYWGQGTTLTVSS
VL: ZTQSLASLAVSLGQRATMSCRASQSVSTSTYSYMHWYQQKPGQPPKLLIKYASNLECGVPARFSGSGZGTDFTLNIHPVEEEDSATYYCQHSWEIPLTFGGGTKLEMK
notes: Mouse hybridoma antibody, tested under the label 2F5; also called C-2F5; 2F5 mAb
On to B3, for which the EC50 is 0.138 nM in test [17] and below 0.2 nM in test [19]. The % Positive in test [11] is 99%; in [13], 97.5%; in [14] it was 96.7%; in [15], 87%. Moreover, the MFI in test [11] stood at 4300; in [13], 1200; in test [14] it was 2510; in test [15], 9520. The Percent RBC Binding to CD33 in test [12] turned out to be 11.5%. Also, in test [18], the Kd was determined as 0.3 nM. The Binding Reactivity (% WT) in test [1] was determined as 32.7 % WT; in test [2], 102 % WT; in test [3], 78.2 % WT; in test [4], 8.9 % WT; in test [5], 122 % WT; in [6], 20.6 % WT. In addition, the Binding Reactivity (% WT) in test [7] was 105 % WT; in test [8], 111 % WT; in test [9] it was 102 % WT; in [10], 79.5 % WT. The same molecule gave a % CD33 surface expression, U937 cells (FACS, 1.0 ug/ml antibody, 24 h, % of no antibody) in test [16] of 46.7%. This molecule came in with a % CD33 surface expression, human microglial cells (FACS, % of no antibody) in [16] of 25%. In addition, the % CD33 surface expression, human primary dendritic cells (FACS, 1.0 ug/ml antibody, 24 h, % of no antibody) in test [16] came out at 15.9%. Further, in [16], the % CD33 surface expression, human primary macrophages (FACS, 1.0 ug/ml antibody, 24 h, % of no antibody) came out at 58.7%. This molecule also displayed a % CD33 surface expression, human primary monocytes (FACS, 1.0 ug/ml antibody, 24 h, % of no antibody) in [16] of 23.3%. Moreover, the EC50 for reducing cell surface expression of CD33 (12-point 2-fold titration, FACS) in test [16] is 0.0215 nM. The cell surface CD33 on hCD45+ hCD14+ blood cells of hu-NSGS mice (FACS, 40 mg/kg i.p.) in test [16] turned out to be 80%. In addition, the cell surface CD33 on human primary monocytes at 0.001 ug/ml antibody (FACS, % of no antibody) in [16] was 50% and 30%. The cell surface CD33 on human primary monocytes at 0.01 ug/ml antibody (FACS, % of no antibody) in test [16] amounted to 20%. Moreover, in test [16], the cell surface CD33 on peripheral human CD45+ CD14+ monocytes of humanized NOG mice (FACS, single i.p. dose) was determined as 50%. This molecule had a fold improvement over gemtuzumab in reducing cell surface levels of CD33 on human primary monocytes in test [16] of 10 fold. The same molecule registered a fold improvement over lintuzumab in reducing cell surface levels of CD33 on human primary monocytes in test [16] of 100 fold.

B4: anti-CD33 antibody lintuzumab (antibody, V domains shown)
VH: QVQLVQSGAEVKKPGSSVKVSCKASGYTFTDYNMHWVRQAPGQGLEWIGYIYPYNGGTGYNQKFKSKATITADESTNTAYMELSSLRSEDTAVYYCARGRPAMDYWGQGTLVTVSS
VL: DIQMTQSPSSLSASVGDRVTITCRASESVDNYGISFMNWFQQKPGKAPKLLIYAASNQGSGVPSRFSGSGSGTDFTLTISSLQPDDFATYYCQQSKEVPWTFGQGTKVEIKR
notes: as for B1
Turning to B4, the EC50 in [17] came to 0.845 nM.
